Patent US20150118286A1 (ELIXIR INSTITUTE OF REGENERATIVE MEDICINE, published 2015)

Columns and labels:
[1] = target: T1, Mushroom tyrosinase (mushroom, UniProt C7FF04 1-392); assay: cell-based or functional assay
[2] = target: T1, Mushroom tyrosinase; assay: enzyme kinetics on mushroom tyrosinase, Lineweaver-Burk / nonlinear regression, differs from Table 4
Experimental: Tyrosinase inhibitory activity was determined in vitro using L-tyrosine or L-dopa as the substrate following a modified method from Piao, L. Z., Park, H. R., Park, Y. K., Lee, S. K., Park, J. H., and Park, M. K. (2002) Chem Pharm Bull (Tokyo) 50, 309-311. The concentration of enzyme, substrate and inhibitor was denoted as [E], [S] and [I], respectively. The experiment was conducted in a 96-well flat-bottomed plate. Each well contained 80 μl of 0.067 M potassium phosphate buffer (pH 6.8), 40 μl of 5 mg/ml L-tyrosine dissolved in 0.067 M potassium phosphate buffer (pH 6.8), 40 μl of the different concentrations of inhibitors dissolved in the same buffer, and 40 μl of 480 units/ml mushroom tyrosinase solution. The final volume of each well was 200 μl, containing 1 mg/ml [S], 96 units/ml [E] and varying concentrations of [I] ranging from 1 μM to 10 mM. For the negative control wells, the inhibitors were substituted with buffer solution and adjusted to the total volume of 200 μl. HQ served as a positive control to calibrate the assay as a wide range of IC₅₀ values has been previously reported (Neeley, E., Fritch, G., Fuller, A., Wolfe, J., Wright, J., and Flurkey, W. (2009) Int J Mol Sci 10, 3811-3823). The assay mixture was incubated at 37° C. The optical density of the reaction mixtures, which correlates with the amount of dopachrome produced, was measured at 475 nm using a Varioskan microplate reader (Thermo Electron Corporation, San Jose, Calif.) at different time periods. For assessment of the 2nd step of melanin synthesis, we used L-dopa as the substrate and freshly extracted human tyrosinase as previously described (Abu Ubeid, A., Zhao, L., Wang, Y., and Hantash, B. M. (2009) J Invest Dermatol 129, 2242-2249).
The kinetics and mode of inhibition for P16-18 (SEQ ID NO: 1, 2 and 3 respectively) and HQ was determined using a standard assay (Pomerantz, S. H. (1966) J Biol Chem 241, 161-168). As illustrated by Lineweaver-Burk plots shown in FIG. 3, the Vₘₐₓ was independent of […] for HQ and all 3 octapeptides, whereas the Kₘ was altered.

T1 sequence (C7FF04 1-392): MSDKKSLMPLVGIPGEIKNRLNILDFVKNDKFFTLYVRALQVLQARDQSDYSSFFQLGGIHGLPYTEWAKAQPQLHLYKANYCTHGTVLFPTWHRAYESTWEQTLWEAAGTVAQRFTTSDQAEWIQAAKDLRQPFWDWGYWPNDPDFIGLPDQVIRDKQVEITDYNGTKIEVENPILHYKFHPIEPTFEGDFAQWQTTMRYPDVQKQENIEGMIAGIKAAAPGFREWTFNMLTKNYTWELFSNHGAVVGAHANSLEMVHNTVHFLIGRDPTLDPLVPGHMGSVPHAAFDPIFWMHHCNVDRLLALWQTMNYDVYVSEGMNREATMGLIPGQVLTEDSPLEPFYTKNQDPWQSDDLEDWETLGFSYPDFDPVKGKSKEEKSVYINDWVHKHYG

Binder	IC50 [µM], mushroom tyrosinase inhibition (dopachrome OD 475 nm, L-tyrosine substrate) [1]	Ki [2]
RRRYWYYR (Synthetic octapeptide) [P17 peptide]	398 µM	190 µM
RRFVLL [P14 peptide]	1770 µM	
RRWWRRYY (Synthetic octapeptide) [P16 peptide]	238 µM	167 µM
RRYWYWRR (Synthetic octapeptide) [P18 peptide]	282 µM	179 µM
RRVAL [P13 peptide]	2200 µM	
